Like-named read-outs stand apart in the source and are kept apart here.
What was measured:
Assay in all cases: resonant mirror detection
calmodulin = calmodulin (UniProt P0DP23)
[1] = molecular target: cytoplasmic domain of band 3 (UniProt P02730)
[2] = molecular target: cytoplasmic domain of CD44 (UniProt P16070)
p55 [3] = molecular target: p55 (UniProt Q00013)
[4] = molecular target: cytoplasmic domain of glycophorin C (UniProt P04921)
[5] = molecular target: cytoplasmic domain of band 3 (UniProt P02730); remark: listed apart in the source
[6] = molecular target: cytoplasmic domain of CD44 (UniProt P16070); remark: listed apart in the source
p55 [7] = molecular target: p55 (UniProt Q00013); remark: listed apart in the source
[8] = molecular target: cytoplasmic domain of glycophorin C (UniProt P04921); remark: listed apart in the source

Sequence of cytoplasmic domain of CD44 (P16070 671-742): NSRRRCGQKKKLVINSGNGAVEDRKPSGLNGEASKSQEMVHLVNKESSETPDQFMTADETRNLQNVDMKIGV
Sequence of cytoplasmic domain of band 3 (P02730 1-403): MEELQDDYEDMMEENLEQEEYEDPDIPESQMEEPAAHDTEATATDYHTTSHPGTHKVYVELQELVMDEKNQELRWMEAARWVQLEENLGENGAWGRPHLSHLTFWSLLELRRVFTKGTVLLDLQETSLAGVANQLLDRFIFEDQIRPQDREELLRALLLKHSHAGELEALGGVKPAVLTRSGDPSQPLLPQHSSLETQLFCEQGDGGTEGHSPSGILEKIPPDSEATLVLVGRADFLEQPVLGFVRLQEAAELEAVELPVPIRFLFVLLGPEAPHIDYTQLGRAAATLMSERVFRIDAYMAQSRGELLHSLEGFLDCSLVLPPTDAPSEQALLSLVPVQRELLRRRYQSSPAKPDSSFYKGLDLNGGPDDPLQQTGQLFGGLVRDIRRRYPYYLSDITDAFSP
Sequence of p55 (Q00013 whole entry, the tested form may be a part): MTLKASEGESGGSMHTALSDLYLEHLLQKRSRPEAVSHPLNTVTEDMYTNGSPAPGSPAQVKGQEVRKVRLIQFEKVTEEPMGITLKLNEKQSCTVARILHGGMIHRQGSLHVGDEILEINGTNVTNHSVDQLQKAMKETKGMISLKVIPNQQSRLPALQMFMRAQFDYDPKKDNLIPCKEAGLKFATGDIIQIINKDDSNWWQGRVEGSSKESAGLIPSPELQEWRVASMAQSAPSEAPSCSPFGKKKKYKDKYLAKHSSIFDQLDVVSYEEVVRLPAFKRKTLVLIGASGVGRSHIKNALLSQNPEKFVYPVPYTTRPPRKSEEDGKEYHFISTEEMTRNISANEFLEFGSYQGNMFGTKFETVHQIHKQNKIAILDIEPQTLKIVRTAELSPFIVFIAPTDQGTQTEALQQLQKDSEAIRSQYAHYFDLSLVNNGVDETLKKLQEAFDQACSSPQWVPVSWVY
Sequence of cytoplasmic domain of glycophorin C (P04921 82-128): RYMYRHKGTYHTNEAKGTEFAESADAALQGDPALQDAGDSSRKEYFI

Row | Substance | Kd (calmodulin) [µM] | kon (calmodulin) [M⁻¹ s⁻¹] | Kd [1] [µM] | koff [1] [s⁻¹] | Kd [2] [µM] | koff [2] [s⁻¹] | kon [2] [M⁻¹ s⁻¹] | Kd (p55 [3]) [µM] | Kd [4] [µM] | Kd [5] [µM] | Kd [6] [µM] | koff [6] [s⁻¹] | kon [6] [M⁻¹ s⁻¹] | Kd (p55 [7]) [µM] | koff (p55 [7]) [s⁻¹] | Kd [8] [µM]
1 | G30 (30kDa membrane binding domain of protein 4.1G) (from UniProt O43491 1-1005) (domain or fragment) | 0.19 | – | – | – | – | – | – | – | – | – | – | – | – | – | – | –
2 | GHP-G30 (headpiece region and 30kDa domain of 4.1G) (from UniProt O43491 1-1005) (domain or fragment) | 2.97 | 180000 | – | – | – | – | – | – | – | – | – | – | – | – | – | –
3 | complex of RHP-G30 and CaM (from UniProt P11171 1-209; P0DP23 1-149) | – | – | 0.183 | 0.012 | 0.314 | 0.016 | 51000 | 0.113 | 0.237 | 2.19 | 0.737 | 0.019 | 25000 | 1.76 | 0.012 | 1.48

Reference: paper PMC4371549
